# Legend:
# [1] = target: T1, PV-3C main protease (Poliovirus, UniProt P03300 1566-1748); assay: NMR (SOFAST-HMQC CSP); 3C:RNA 1:0.5; conditions: protein: recombinant; tags: SUMO tag cleaved by ULP-1; 15N-labeled for NMR
# [2] = target: T1, PV-3C main protease; assay: NMR (SOFAST-HMQC peak loss); conditions: protein: recombinant; tags: SUMO tag cleaved by ULP-1; 15N-labeled for NMR
# T1 sequence (P03300 1566-1748): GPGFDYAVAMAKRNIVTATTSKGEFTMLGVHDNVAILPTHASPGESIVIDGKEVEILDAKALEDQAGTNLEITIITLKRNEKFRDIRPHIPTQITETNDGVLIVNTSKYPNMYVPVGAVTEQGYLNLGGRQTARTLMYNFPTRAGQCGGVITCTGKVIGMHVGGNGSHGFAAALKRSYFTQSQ
Binder,binding result [1],binding result [2]
GGCGGCGUACUCCGG (ssRNA) [RNA-1],binds,–
CAUACUGUUGUAGGGGAA (ssRNA) [RNA-2],–,binds
